Test results as given in PMC5780041.

Experiments:
Assay in all cases: GST pull-down, quantified immunoblot
[1] = biological target: 3x tandem linear human ubiquitin (C-terminal His-tagged), phosphorylated in vitro by GST-TcPINK1 (UniProt P0CG48); details: + PINK1 (3xUb pre-treated with GST-TcPINK1); parent: est. 14; read off a plot
[2] = biological target: 4x tandem linear human ubiquitin (C-terminal His-tagged), phosphorylated in vitro by GST-TcPINK1 (UniProt P0CG48); details: + PINK1 (4xUb pre-treated with GST-TcPINK1); parent: est. 20; read off a plot
[3] = biological target: 4x tandem linear human ubiquitin (C-terminal His-tagged) (UniProt P0CG48); details: - PINK1 (non-phosphorylated 4xUb); parent: est. 32; read off a plot
[4] = biological target: 3x tandem linear human ubiquitin (C-terminal His-tagged) (UniProt P0CG48); details: - PINK1 (non-phosphorylated 3xUb); parent: est. 16; read off a plot
[5] = biological target: 2x tandem linear human ubiquitin (C-terminal His-tagged), phosphorylated in vitro by GST-TcPINK1 (UniProt P0CG48); details: + PINK1 (2xUb pre-treated with GST-TcPINK1); parent: est. 7.5; read off a plot

Sequence of GST-tagged mouse RABGEF1 (WT) 1-74aa, Q9JM13 Y26A (Q9JM13 1-74 Y26A): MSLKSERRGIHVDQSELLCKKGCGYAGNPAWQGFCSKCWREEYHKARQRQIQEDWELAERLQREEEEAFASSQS
Sequence of GST-tagged mouse RABGEF1 (WT) 1-74aa, Q9JM13 A58D (Q9JM13 1-74 A58D): as the sequence (Q9JM13 1-74 Y26A) above, with A26Y, A58D counted along it

Row | Substance | response [1] | response [2] | response [3] | response [4] | response [5]
1 | GST-tagged mouse RABGEF1 (WT) 1-74aa, Q9JM13 A58D | 8 % of total | 17 % of total | 24 % of total | 8 % of total | 
2 | GST-tagged mouse RABGEF1 (WT) 1-74aa, Q9JM13 Y26A | 13 % of total | 20 % of total | 28 % of total | 14 % of total | 4 % of total
